What was measured:
Assay in all cases: cell_activity
[1] = tested on: TALEN 101511 (engineered); settings: pair with 101515, K562; 3.4 with 101514, 5.3 with 101516
[2] = tested on: TALEN 101513 (engineered); settings: pair with 101516, K562; 5.9 with 101514, 8.3 with 101515
[3] = tested on: TALEN 101536 (engineered); settings: pair with 101541, K562; 8.5 with 101539, 9.9 with 101540
[4] = tested on: TALEN 101515 (engineered); settings: pair with 101512, K562
[5] = tested on: TALEN 101539 (engineered); settings: pair with 101536, K562; 0.0 with 101537
[6] = tested on: TALEN 101516 (engineered); settings: pair with 101513, K562
[7] = tested on: ZFN 16787 (TRBC) (engineered); settings: pair with 16783, K562 day 3; 15.6 day 10; Table 6 8.73 TRBC1, 8.68 TRBC2
[8] = tested on: ZFN 22449 (TRBC) (engineered); settings: pair with 16783, K562 day 3; 8.1 day 10
[9] = tested on: ZFN 22454 (TRBC) (engineered); settings: pair with 16783, K562 day 3; 12.1 day 10
[10] = tested on: ZFN 22409 (TRBC) (engineered); settings: pair with 16783, K562 day 10
[11] = tested on: TALEN 101540 (engineered); settings: pair with 101536, K562; 9.6 with 101537
[12] = tested on: TALEN 101537 (engineered); settings: pair with 101541, K562; 9.6 with 101540, 0.0 with 101539
[13] = tested on: TALEN 101512 (engineered); settings: pair with 101516, K562; 5.3 with 101514, 8.9 with 101515
[14] = tested on: TALEN 101514 (engineered); settings: pair with 101513, K562

Sequence: GTGCTGTGGCCTGGAGCAA (double strand) [101511 site]
- activity [1]: 5.9 % NHEJ

Sequence: CTGTGGCCTGGAGCAACAA (double strand) [101513 site]
- activity [2]: 16.4 % NHEJ

Sequence: TTCCGCTGTCAAGTCCAGTTC (double strand) [101536 site]
- activity [3]: 15 % NHEJ

Sequence: GTTGAAGGCGTTTGCACATGC (double strand) [101515 site]
- activity [4]: 8.9 % NHEJ

Sequence: CTGGGTCCACTCGTCATTCT (double strand) [101539 site]
- activity [5]: 8.5 % NHEJ

Sequence: GTTGAAGGCGTTTGCACATG (double strand) [101516 site]
- activity [6]: 16.4 % NHEJ

Sequence: TCTCGGAGAATGACGAGTGGACCCAGGA (double strand) [TRBC 16787 site]
- activity [7]: 12.1 % NHEJ
- activity [8]: 20.1 % NHEJ
- activity [9]: 17.7 % NHEJ
- activity [10]: 14.7 % NHEJ

Sequence: CTGGGTCCACTCGTCATTC (double strand) [101540 site]
- activity [11]: 9.9 % NHEJ

Sequence: CTGTCAAGTCCAGTTCTA (double strand) [101537 site]
- activity [12]: 9.9 % NHEJ

Sequence: GTGCTGTGGCCTGGAGCAAC (double strand) [101512 site]
- activity [13]: 12 % NHEJ

Sequence: TTGAAGGCGTTTGCACATGCA (double strand) [101514 site]
- activity [14]: 5.9 % NHEJ

From patent US20140301990A1
